Measurements reported in publication PMC4987244 (Cancer research, 2016).
Changes are numbered by the printed parent chain. In names and notes the source's numbering stands. Like-named read-outs stand apart in the source and are kept apart here.

T1: HA-tagged PRL1 expressed in HEK293 cells, Q93096
T1 chain: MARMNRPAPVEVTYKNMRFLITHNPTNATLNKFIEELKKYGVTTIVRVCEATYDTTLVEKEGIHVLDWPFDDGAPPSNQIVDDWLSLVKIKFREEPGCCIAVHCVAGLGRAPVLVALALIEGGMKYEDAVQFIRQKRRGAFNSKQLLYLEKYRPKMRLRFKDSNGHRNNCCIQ

B1: PRL2 (enzyme, UniProt Q12974 1-167, looked up)
chain: MNRPAPVEISYENMRFLITHNPTNATLNKFTEELKKYGVTTLVRVCDATYDKAPVEKEGIHVLDWPFDDGAPPPNQIVDDWLNLLKTKFREEPGCCVAVHCVAGLGRAPVLVALALIECGMKYEDAVQFIRQKRRGAFNSKQLLYLEKYRPKMRLRFRDTNGHCCVQ
B2: HA-tagged PRL1 expressed in HEK293 cells, Q93096 1-173 (enzyme)
chain: T1 chain
B3: PRL1 (phosphatase of regenerating liver 1), recombinant wild type (enzyme)
chain: MNRPAPVEVTYKNMRFLITHNPTNATLNKFIEELKKYGVTTIVRVCEATYDTTLVEKEGIHVLDWPFDDGAPPSNQIVDDWLSLVKIKFREEPGCCIAVHCVAGLGRAPVLVALALIEGGMKYEDAVQFIRQKRRGAFNSKQLLYLEKYRPKMRLRF
B4: PRL1/Y14A, recombinant (enzyme)
chain: B3 chain with Y11A
B5: PRL1/F132A, recombinant (enzyme)
chain: B3 chain with F129A

Experiments:
[1] = target: the molecule itself
[2] = target: T1, HA-tagged PRL1 expressed in HEK293 …; assay: cross-linking; conditions: remark: other sources report otherwise
cross-linking = target: the molecule itself; assay: cross-linking

Binder	stoichiometry N (cross-linking)	further results
B1	–	stoichiometry N [1]: 3
B2	–	stoichiometry N [2]: 3
B3	3	–
B4	3	–
B5	3	–
